In the supplement of paper PMC9732359:
± gives the uncertainty stated by the source.

Assay: protein stability index of a GFP-peptide fusion (yeast GPS) (PSI 1-4); higher = more stable; sorted into four equal gates, so the index is relative within each strain
Details: doa10∆
How it was run: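 The protein stability index combines read frequencies across sorting gates, each weighted by its gate number and then summed. To obtain those frequencies, a pooled yeast library of GFP fusions to tiled 17-residue yeast protein peptides, on a plasmid also expressing Cherry, was grown to mid-log phase in leucine-free medium. The cells were sorted into four equal gates by GFP/Cherry ratio before plasmid amplification by PCR and Illumina sequencing.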

Row | Sequence | protein stability index
1 | PLKTQTKNGTPNPNNMK [GAL11] | 2.98 ± 0.085
2 | PLLAQLFKTLFKKLTKD [RPB2] | 2.65 ± 0.04
3 | PLLEAKKLVWPLHLIFA [SSN2] | 1.61 ± 0.083
4 | PLLSKKERLVRDKKEKK [SMB1] | 3.37 ± 0.24
5 | PLSAGFNYGKLPLPPSV [SIN4] | 2.75 ± 0.074
6 | PLSGLLFKNYRFNFISK [YMR129W/POM152] | 2.85 ± 0.11
7 | PLSNIKALLFFNNEKET [RPN12] | 1.46 ± 0.056
8 | PLSVATELMNRSPLVTP [SRP72] | 2.14 ± 0.068
9 | PLVQADLYEQIGIDPPR [RPT3] | 2.48 ± 0.074
10 | PMDEETKLYFDVNEKIR [RPC25] | 3.01 ± 0.098
11 | PMIKAEETPSKTNKISI [NUT1] | 2.52 ± 0.057
12 | PMNAPTPAMIPYPGSPM [DSN1] | 2.79 ± 0.044
13 | PNCLFILKLLNGFMESA [SOH1] | 1.9 ± 0.17
14 | PNGHISTKKIQVATKYA [YMR129W/POM152] | 1.86 ± 0.082
15 | PNGSGKSNVIDSMLFVF [SMC4] | 2.87 ± 0.048
16 | PNLATFISSGTSLLDSL [YJL039C/NUP192] | 2.23 ± 0.047
17 | PNTKDAMSLYHSPFPFN [PRP8] | 2.64 ± 0.049
18 | PNYLHLVSSYLNKSDLL [YML103C/NUP188] | 1.96 ± 0.038
19 | PPDIHPNLGPQLWLNSS [GRR1] | 3.28 ± 0.089
20 | PPEVTSSNCHVRQKIKT [POP1] | 3.05 ± 0.071
21 | PPKEGNYEIVFDTVSNK [YMR129W/POM152] | 3.11 ± 0.086
22 | PPLTSQYSTRHDAPRGL [SWI3] | 3.13 ± 0.047
23 | PPNNARRTYNTLEDKFL [ISW2] | 2.09 ± 0.04
24 | PPQDAEGWFYKRAASVA [RPS19A] | 2.9 ± 0.27
25 | PQEESVSPNISSASPSA [SIR3] | 2.99 ± 0.048
26 | PQIAQLPLATQQQVLNK [SNF5] | 1.94 ± 0.074
27 | PQIVKLFDISREALSGR [ECM29] | 3.44 ± 0.15

Row | Sequence | protein stability index
28 | PQKNLLLKGPASTVAKT [YOR098C/NUP1] | 2.73 ± 0.057
29 | PQLTFTHVANFMNDAAA [YML103C/NUP188] | 3.04 ± 0.094
30 | PQNGNINNNINIPQQQQ [GAL11] | 3.32 ± 0.095
31 | PQQSRYISFIKDDRFVP [RPN2] | 2.67 ± 0.055
32 | PQRCTFAFEAIDPRHLA [POP1] | 2.55 ± 0.095
33 | PQVKIREASKDNVDFIL [RPB3] | 2.55 ± 0.065
34 | PRGLRSLTTVWAEHLSD [RPL3] | 2.74 ± 0.12
35 | PRLDAQAIKEASYVNIP [RPS0B] | 2.88 ± 0.041
36 | PRLDDVVVDTVECAQHC [SMC4] | 3.22 ± 0.1
37 | PRLDTSKEFSAYVSGLF [YJR042W/NUP85] | 2.33 ± 0.13
38 | PRLLGPQLSKAGKFPTP [RPL1A] | 2.86 ± 0.066
39 | PRMVRDVFRLARENAPS [RPT3] | 2.62 ± 0.17
40 | PRYFSEAINGFKDETIS [SIR3] | 2.77 ± 0.057
41 | PRYHSKNSFQQALQMKA [SWP82] | 1.4 ± 0.033
42 | PSEDVAALKKTRKAARP [RPL6A] | 2.83 ± 0.062
43 | PSELNQLKMVNERELNV [RPC82] | 3.14 ± 0.13
44 | PSESEHPIRVLMASVIL [YDL116W/NUP84] | 1.87 ± 0.076
45 | PSFVKSGKLRDYQVQGL [ISW2] | 3.33 ± 0.076
46 | PSKTPEVYMRYRNFMVN [SWI3] | 1.8 ± 0.075
47 | PSLNNKISDDELERILK [RPB4] | 3.09 ± 0.096
48 | PSNESCSPWSLQISDIP [SRB5] | 2.87 ± 0.058
49 | PSSSDSNGPRAAKKRRP [RRP6] | 3.08 ± 0.11
50 | PSVIHSSVEMLLDVVKG [YDL116W/NUP84] | 2.56 ± 0.085
51 | PSYSPTSPGYSPGSPAY [RPO21] | 2.52 ± 0.067
52 | PSYVHFKVQIIELLSYL [YML103C/NUP188] | 1.41 ± 0.063
53 | PTAKDVEVIKQLSLDAS [GAL11] | 3.08 ± 0.13
54 | PTDQNNQSNLNGGNNTQ [SNF2] | 2.46 ± 0.083

Row | Sequence | protein stability index
55 | PTIEEDLTRVYKAISAQ [FAS2] | 2.22 ± 0.051
56 | PTRIRTKSSKEFFNTLR [RRI2] | 2.73 ± 0.13
57 | PTVNRVPNYEVSEKAFL [RPN7] | 1.14 ± 0.12
58 | PVEKVQRIAKNDPEYMD [DLS1] | 2.75 ± 0.27
59 | PVKQSFIRKYINQKALR [GAL11] | 1.61 ± 0.12
60 | PVMADLNGGLQFVPELK [FAS2] | 1.78 ± 0.069
61 | PVTIWLFEQIGIRIKGK [SME1] | 2.42 ± 0.057
62 | PVTSIPSTNKKLSISNA [GAL11] | 2.29 ± 0.061
63 | PWDTSLEVGRRFSPDED [MCD1] | 3.25 ± 0.14
64 | QAAAKPSLEKSSFTFGS [YLR335W/NUP2] | 3.04 ± 0.1
65 | QAESMKFKLLNGLAIRR [RPS3] | 1.69 ± 0.069
66 | QALDAVRMRLAQLTHSL [MED8] | 1.58 ± 0.04
67 | QARDNSQVFGVARIYAS [RPS14A] | 1.9 ± 0.066
68 | QASGITAGAAANALGGL [SSN3] | 2.56 ± 0.071
69 | QAVNNLIKTLSTLHMLG [RPP1] | 2.5 ± 0.053
70 | QAYFSRLELPVDFQNDL [BRR2] | 2.65 ± 0.15
71 | QCNYSSLVFNRKLAVER [PRE5] | 2.23 ± 0.2
72 | QDDIDEMVENSSENNQI [SRP68] | 3.35 ± 0.1
73 | QDEVNKGPAIDELSSKE [NNF1] | 3.23 ± 0.061
74 | QDKMFVSNPIRKVFKPS [FAS1] | 3.01 ± 0.058
75 | QDMEAAKEVYKIHQQLL [GAL11] | 3.41 ± 0.22
76 | QDMQLKIWSVKDGSNPR [RPN14] | 2.99 ± 0.097
77 | QDPIFGSVLLTLLNFVS [ECM29] | 1.63 ± 0.049
78 | QDSMSKGTGEESNDRIN [YGR119C/NUP57] | 3.33 ± 0.098
79 | QDSNVMPGSQINSPMPQ [SNF2] | 3.26 ± 0.2
80 | QDVLKGSSASSRKAHGL [POP1] | 3.27 ± 0.062
81 | QDVQRTCILHGPVAAQF [FAS1] | 2.12 ± 0.078

Row | Sequence | protein stability index
82 | QEEGSFEFGNMKATSNT [FAS2] | 3.28 ± 0.05
83 | QEFDSELSKEEKERLES [SMC3] | 2.97 ± 0.12
84 | QEGIEAIATTVIAHLTV [RET1] | 1.86 ± 0.057
85 | QEITTNLENHFKKSKID [SCL1] | 3.12 ± 0.089
86 | QELEKRMPMDFKGVIVK [PRE1] | 1.77 ± 0.18
87 | QELGFCELLKLTNEDPP [SSN2] | 3 ± 0.12
88 | QERNKIHQYLFQEGVVV [RPS10B] | 1.27 ± 0.06
89 | QFCAFDSSSNTYRSRAQ [SIN4] | 2.82 ± 0.075
90 | QFIYAGKKASLNVGNVL [RPL2A] | 2.59 ± 0.092
91 | QFSLPNGDNSTTTNTDQ [SNF12] | 2.47 ± 0.047
92 | QGATNEGYQNDINTIKL [SRP72] | 3.54 ± 0.27
93 | QGISGSQQNIVPNSSDQ [SNF2] | 2.92 ± 0.05
94 | QGIVPDIIMNPHGFPSR [RET1] | 2.64 ± 0.05
95 | QGKPYISLPKGKGIKLS [RPS4A] | 3.29 ± 0.07
96 | QGSVRRLTVSARDAPTK [QCR2] | 2.93 ± 0.12
97 | QHLQFNGSSDASSLRFG [YDL088C/ASM4] | 2.24 ± 0.055
98 | QIANDPSKKRRRDFGAP [SMD1] | 2.81 ± 0.12
99 | QIKGLQWMVSLFNNHLN [SNF2] | 1.79 ± 0.12
100 | QILSTVVEDKPLLSKKE [SMB1] | 1.15 ± 0.061
101 | QILSVAIPNGIHLQRFD [RPO21] | 2.41 ± 0.1
102 | QINQGVPSAKPLILTPP [SNF11] | 2.75 ± 0.055
103 | QIPHFNNKILEKCKEIN [BRR2] | 1.28 ± 0.11
104 | QIPTPNNTVDPGFDEFQ [CSI1] | 3.17 ± 0.057
105 | QIVDIRNKRAVQLPILK [YJL039C/NUP192] | 2.2 ± 0.1
